In article doi:10.1101/2020.07.16.206169:
Read-outs that look alike come from different tables or passages of the source.

Tests used:
[1] = target: PorZ from Porphyromonas gingivalis (Porphyromonas gingivalis) (UniProt Q9S3Q8); experiment: MST
[2] = target: PorZ from Porphyromonas gingivalis (Porphyromonas gingivalis) (UniProt Q9S3Q8); experiment: MST; remark: listed apart in the source

PorU sortase from Porphyromonas gingivalis, hexahistidine-tagged (from UniProt B2RGP6 1-1158) (enzyme)
Kd [1]: 3380 nM
Kd [2]: 672 nM
